{"source": "paper PMC7480387", "key": {"[1]": {"test_system": "T1, GST-SfbR2 (Streptomyces filipinensis DSM 40112), ORF:2e1db1fa", "T1 sequence": "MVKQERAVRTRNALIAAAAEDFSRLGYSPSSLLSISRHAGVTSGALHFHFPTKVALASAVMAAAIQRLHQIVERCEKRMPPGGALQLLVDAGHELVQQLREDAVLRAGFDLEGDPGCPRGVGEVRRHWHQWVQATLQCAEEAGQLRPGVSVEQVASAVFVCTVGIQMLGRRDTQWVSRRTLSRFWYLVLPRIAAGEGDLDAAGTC", "assay": "EMSA", "details": "EMSA: 100 mM HEPES pH 7.6, 10 mM KCl, 5 mM MgCl2, 1 mM DTT, 1% Tween 20, 7.8 mM glutathione, 40 ug/ml poly[d(I-C)], 5% glycerol, 30 C, 10 min; 0.005 ng/ul …"}, "[2]": {"test_system": "T2, GST-SfbR (Streptomyces filipinensis DSM 40112), ORF:e6e403b8", "T2 sequence": "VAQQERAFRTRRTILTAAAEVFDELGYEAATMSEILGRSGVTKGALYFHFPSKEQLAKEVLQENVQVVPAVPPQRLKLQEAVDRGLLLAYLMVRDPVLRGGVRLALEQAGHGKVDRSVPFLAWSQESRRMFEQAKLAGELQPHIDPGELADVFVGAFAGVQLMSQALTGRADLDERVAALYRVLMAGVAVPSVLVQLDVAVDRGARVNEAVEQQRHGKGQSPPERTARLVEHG", "assay": "EMSA", "details": "EMSA: 100 mM HEPES pH 7.6, 10 mM KCl, 5 mM MgCl2, 1 mM DTT, 1% Tween 20, 7.8 mM glutathione, 40 ug/ml poly[d(I-C)], 5% glycerol, 30 C, 10 min; 0.005 ng/ul …"}}}
{"sequence": "GCGTGCTGCCCAGCCGTGCTGCAAAGCCGCCGAGTACTTCGATGTCCATCTCTCTCCCCCAGATCCGTACGCGCGGGGCCCGTCAGGCACGCGCGGGGTGTGGCGTAGCTCAGGGAACTCGGGACTTGCTTGACCACCAAATTAAACAGCATGGCCGGTTCTTTCTCCAGTGGAACCCGAGGATCCGTGCCGGCGCCGCCCGCGGCCCGCGCCGCGGGGCGCGGGTCCGCGGTCGGCGTCCTCGCAGGTCTGTCCGTGTGCCGGGGTGGTGTGC (double strand) [sfb7p]", "values": [{"measurement": "binding", "setting": "[1]", "result": "binds"}, {"measurement": "binding", "setting": "[2]", "result": "binds"}]}
